According to the supplement of paper PMC5998384:

Tests used:
HeLa Kyoto [1] = assay: solubility in G1/S (NP-40 vs SDS abundance) (log2 ratio); higher = more soluble; settings: cell cycle stage: G1/S
HeLa Kyoto [2] = assay: solubility change mitosis vs G1/S (difference of NP-40 vs SDS log2 ratios) (log2 ratio difference); higher = more soluble in mitosis
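Throughout, for solubility change mitosis vs G1/S (difference of NP-40 vs SDS log2 ratios): synchronized HeLa Kyoto cells (double thymidine block for G1/S, nocodazole release for mitosis), protein amounts in NP-40 versus SDS lysates quantified by mass spectrometry, three biological replicates.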
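Throughout, for solubility in G1/S (NP-40 vs SDS abundance): HeLa Kyoto cells arrested at G1/S by double thymidine block, proteins quantified by TMT10plex mass spectrometry in mild NP-40 versus SDS extracts, three biological replicates.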

Row | Sequence | solubility in G1/S (log2) (HeLa Kyoto [1]) | solubility change mitosis (log2) (HeLa Kyoto [2])
1 | MISAPDVVAFTKEEEYEEEPYNEPALPEEYSVPLFPFASQGANPWSKLSGAKFSRDFILISEFSEQVGPQPLLTIPNDTKVFGTFDLNYFSLRIMSVDYQASFVGHPPGSAYPKLNFVEDSKVVLGDSKEGAFAYVHHLTLYDLEARGFVRPFCMAYISADQHKIMQQFQELSAEFSRASECLKTGNRKAFAGELEKKLKDLDYTRTVLHTETEIQKKANDKGFYSSQAIEKANELASVEKSIIEHQDLLKQIRSYPHRKLKGHDLCPGEMEHIQDQASQASTTSNPDESADTDLYTCRPAYTPKLIKAKSTKCFDKKLKTLEELCDTEYFTQTLAQLSHIEHMFRGDLCYLLTSQIDRALLKQQHITNFLFEDFVEVDDRMVEKQESIPSKPSQDRPPSSSLEECPIPKVLISVGSYKSSVESVLIKMEQELGDEEYKEVEVTELSSFDPQENLDYLDMDMKGSISSGESIEVLGTEKSTSVLSKSDSQASLTVPLSPQVVRSKAVSHRTISEDSIEVLSTCPSEALIPDDFKASYPSAINEEESYPDGNEGAIRFQASISPPELGETEEGSIENTPSQIDSSCCIGKESDGQLVLPSTPAHTHSDEDGVVSSPPQRHRQKDQGFRVDFSVENANPSSRDNSCEGFPAYELDPSHLLASRDISKTSLDNYSDTTSYVSSVASTSSDRIPSAYPAGLSSDRHKKRAGQNALKFIRQYPFAHPAIYSLLSGRTLVVLGEDEAIVRKLVTALAIFVPSYGCYAKPVKHWASSPLHIMDFQKWKLIGLQRVASPAGAGTLHALSRYSRYTSILDLDNKTLRCPLYRGTLVPRLADHRTQIKRGSTYYLHVQSMLTQLCSKAFLYTFCHHLHLPTHDKETEELVASRQMSFLKLTLGLVNEDVRVVQYLAELLKLHYMQESPGTSHPMLRFDYVPSFLYKI [SMCR8] | -0.0823 | 0.0252
2 | MKRVNSCVKSDEHVLEELETEGERQLKSLLQHQLDTSVSIEECMSKKESFAPGTMYKPFGKEAAGTMTLSQFQTLHEKDQETASLRELGLNETEILIWKSHVSGEKKTKLRATPEAIQNRLQDIEERISERQRILCLPQRFAKSKQLTRREMEIEKSLFQGADRHSFLKALYYQDEPQKKNKGDPMNNLESFYQEMIMKKRLEEFQLMRGEPFASHSLVSATSVGDSGTAESPSLLQDKGKQAAQGKGPSLHVANVIDFSPEQCWTGPKKLTQPIEFVPEDEIQRNRLSEEEIRKIPMFSSYNPGEPNKVLYLKNLSPRVTERDLVSLFARFQEKKGPPIQFRMMTGRMRGQAFITFPNKEIAWQALHLVNGYKLHGKILVIEFGKNKKQRSNLQATSLISCATGSTTEISGS [RBM41] | -0.192 | -0.0432
3 | MDTDSQRSHLSSFTMKLMDKFHSPKIKRTPSKKGKPAEVSVKIPEKPVNKEATDRFLPEGYPLPLDLEQQAVEFMSTSAVASRSQRQKNLSWLEEKEKEVVSALRYFKTIVDKMAIDKKVLEMLPGSASKVLEAILPLVQNDPRIQHSSALSSCYSRVYQSLANLIRWSDQVMLEGVNSEDKEMVTTVKGVIKAVLDGVKELVRLTIEKQGRPSPTSPVKPSSPASKPDGPAELPLTDREVEILNKTTGMSQSTELLPDATDEEVAPPKPPLPGIRVVDNSPPPALPPKKRQSAPSPTRVAVVAPMSRATSGSSLPVGINRQDFDVDCYAQRRLSGGSHSYGGESPRLSPCSSIGKLSKSDEQLSSLDRDSGQCSRNTSCETLDHYDPDYEFLQQDLSNADQIPQQTAWNLSPLPESLGESGSPFLGPPFQLPLGGHPQPDGPLAPGQQTDTPPALPEKKRRSAASQTADGSGCRVSYERHPSQYDNISGEDLQSTAPIPSVPYAPFAAILPFQHGGSSAPVEFVGDFTAPESTGDPEKPPPLPEKKNKHMLAYMQLLEDYSEPQPSMFYQTPQNEHIYQQKNKLLMEVYGFSDSFSGVDSVQELAPPPALPPKQRQLEPPAGKDGHPRDPSAVSGVPGKDSRDGSERAPKSPDALESAQSEEEVDELSLIDHNEIMSRLTLKQEGDDGPDVRGGSGDILLVHATETDRKDLVLYCEAFLTTYRTFISPEELIKKLQYRYEKFSPFADTFKKRVSKNTFFVLVRVVDELCLVELTEEILKLLMELVFRLVCNGELSLARVLRKNILDKVDQKKLLRCATSSQPLAARGVAARPGTLHDFHSHEIAEQLTLLDAELFYKIEIPEVLLWAKEQNEEKSPNLTQFTEHFNNMSYWVRSIIMLQEKAQDRERLLLKFIKIMKHLRKLNNFNSYLAILSALDSAPIRRLEWQKQTSEGLAEYCTLIDSSSSFRAYRAALSEVEPPCIPYLGLILQDLTFVHLGNPDYIDGKVNFSKRWQQFNILDSMRCFQQAHYDMRRNDDIINFFNDFSDHLAEEALWELSLKIKPRNITRRKTDREEKT [RAPGEF1] | -0.18 | 0.157
4 | MDVDAEREKITQEIKELERILDPGSSGSHVEISESSLESDSEADSLPSEDLDPADPPISEEERWGEASNDEDDPKDKTLPEDPETCLQLNMVYQEVIQEKLAEANLLLAQNREQQEELMRDLAGSKGTKVKDGKSLPPSTYMGHFMKPYFKDKVTGVGPPANEDTREKAAQGIKAFEELLVTKWKNWEKALLRKSVVSDRLQRLLQPKLLKLEYLHQKQSKVSSELERQALEKQGREAEKEIQDINQLPEEALLGNRLDSHDWEKISNINFEGSRSAEEIRKFWQNSEHPSINKQEWSREEEERLQAIAAAHGHLEWQKIAEELGTSRSAFQCLQKFQQHNKALKRKEWTEEEDRMLTQLVQEMRVGSHIPYRRIVYYMEGRDSMQLIYRWTKSLDPGLKKGYWAPEEDAKLLQAVAKYGEQDWFKIREEVPGRSDAQCRDRYLRRLHFSLKKGRWNLKEEEQLIELIEKYGVGHWAKIASELPHRSGSQCLSKWKIMMGKKQGLRRRRRRARHSVRWSSTSSSGSSSGSSGGSSSSSSSSSEEDEPEQAQAGEGDRALLSPQYMVPDMDLWVPARQSTSQPWRGGAGAWLGGPAASLSPPKGSSASQGGSKEASTTAAAPGEETSPVQVPARAHGPVPRSAQASHSADTRPAGAEKQALEGGRRLLTVPVETVLRVLRANTAARSCTQKEQLRQPPLPTSSPGVSSGDSVARSHVQWLRHRATQSGQRRWRHALHRRLLNRRLLLAVTPWVGDVVVPCTQASQRPAVVQTQADGLREQLQQARLASTPVFTLFTQLFHIDTAGCLEVVRERKALPPRLPQAGARDPPVHLLQASSSAQSTPGHLFPNVPAQEASKSASHKGSRRLASSRVERTLPQASLLASTGPRPKPKTVSELLQEKRLQEARAREATRGPVVLPSQLLVSSSVILQPPLPHTPHGRPAPGPTVLNVPLSGPGAPAAAKPGTSGSWQEAGTSAKDKRLSTMQALPLAPVFSEAEGTAPAASQAPALGPGQISVSCPESGLGQSQAPAASRKQGLPEAPPFLPAAPSPTPLPVQPLSLTHIGGPHVATSVPLPVTWVLTAQGLLPVPVPAVVSLPRPAGTPGPAGLLATLLPPLTETRAAQGPRAPALSSSWQPPANMNREPEPSCRTDTPAPPTHALSQSPAEADGSVAFVPGEAQVAREIPEPRTSSHADPPEAEPPWSGRLPAFGGVIPATEPRGTPGSPSGTQEPRGPLGLEKLPLRQPGPEKGALDLEKPPLPQPGPEKGALDLGLLSQEGEAATQQWLGGQRGVRVPLLGSRLPYQPPALCSLRALSGLLLHKKALEHKATSLVVGGEAERPAGALQASLGLVRGQLQDNPAYLLLRARFLAAFTLPALLATLAPQGVRTTLSVPSRVGSESEDEDLLSELELADRDGQPGCTTATCPIQGAPDSGKCSASSCLDTSNDPDDLDVLRTRHARHTRKRRRLV [SNAPC4] | 0.0147 | -0.0345
5 | MPTWGARPASPDRFAVSAEAENKVREQQPHVERIFSVGVSVLPKDCPDNPHIWLQLEGPKENASRAKEYLKGLCSPELQDEIHYPPKLHCIFLGAQGFFLDCLAWSTSAHLVPRAPGSLMISGLTEAFVMAQSRVEELAERLSWDFTPGPSSGASQCTGVLRDFSALLQSPGDAHREALLQLPLAVQEELLSLVQEASSGQGPGALASWEGRSSALLGAQCQGVRAPPSDGRESLDTGSMGPGDCRGARGDTYAVEKEGGKQGGPREMDWGWKELPGEEAWEREVALRPQSVGGGARESAPLKGKALGKEEIALGGGGFCVHREPPGAHGSCHRAAQSRGASLLQRLHNGNASPPRVPSPPPAPEPPWHCGDRGDCGDRGDVGDRGDKQQGMARGRGPQWKRGARGGNLVTGTQRFKEALQDPFTLCLANVPGQPDLRHIVIDGSNVAMVHGLQHYFSSRGIAIAVQYFWDRGHRDITVFVPQWRFSKDAKVRESHFLQKLYSLSLLSLTPSRVMDGKRISSYDDRFMVKLAEETDGIIVSNDQFRDLAEESEKWMAIIRERLLPFTFVGNLFMVPDDPLGRNGPTLDEFLKKPARTQGSSKAQHPSRGFAEHGKQQQGREEEKGSGGIRKTRETERLRRQLLEVFWGQDHKVDFILQREPYCRDINQLSEALLSLNF [KHNYN] | 0.384 | -0.219
6 | MTLKASEGESGGSMHTALSDLYLEHLLQKRSRPEAVSHPLNTVTEDMYTNGSPAPGSPAQVKGQEVRKVRLIQFEKVTEEPMGITLKLNEKQSCTVARILHGGMIHRQGSLHVGDEILEINGTNVTNHSVDQLQKAMKETKGMISLKVIPNQQSRLPALQMFMRAQFDYDPKKDNLIPCKEAGLKFATGDIIQIINKDDSNWWQGRVEGSSKESAGLIPSPELQEWRVASMAQSAPSEAPSCSPFGKKKKYKDKYLAKHSSIFDQLDVVSYEEVVRLPAFKRKTLVLIGASGVGRSHIKNALLSQNPEKFVYPVPYTTRPPRKSEEDGKEYHFISTEEMTRNISANEFLEFGSYQGNMFGTKFETVHQIHKQNKIAILDIEPQTLKIVRTAELSPFIVFIAPTDQGTQTEALQQLQKDSEAIRSQYAHYFDLSLVNNGVDETLKKLQEAFDQACSSPQWVPVSWVY [MPP1] | 0.098 | -0.0545
7 | MWVNPEEVLLANALWITERANPYFILQRRKGHAGDGGGGGGLAGLLVGTLDVVLDSSARVAPYRILYQTPDSLVYWTIACGGSRKEITEHWEWLEQNLLQTLSIFENENDITTFVRGKIQGIIAEYNKINDVKEDDDTEKFKEAIVKFHRLFGMPEEEKLVNYYSCSYWKGKVPRQGWMYLSINHLCFYSFLMGREAKLVIRWVDITQLEKNATLLLPDVIKVSTRSSEHFFSVFLNINETFKLMEQLANIAMRQLLDNEGFEQDRSLPKLKRKSPKKVSALKRDLDARAKSERYRALFRLPKDEKLDGHTDCTLWTPFNKMHILGQMFVSTNYICFTSKEENLCSLIIPLREVTIVEKADSSSVLPSPLSISTRNRMTFLFANLKDRDFLVQRISDFLQQTTSKIYSDKEFAGSYNSSDDEVYSRPSSLVSSSPQRSTSSDADGERQFNLNGNSVPTATQTLMTMYRRRSPEEFNPKLAKEFLKEQAWKIHFAEYGQGICMYRTEKTRELVLKGIPESMRGELWLLLSGAINEKATHPGYYEDLVEKSMGKYNLATEEIERDLHRSLPEHPAFQNEMGIAALRRVLTAYAFRNPNIGYCQAMNIVTSVLLLYAKEEEAFWLLVALCERMLPDYYNTRVVGALVDQGVFEELARDYVPQLYDCMQDLGVISTISLSWFLTLFLSVMPFESAVVVVDCFFYEGIKVIFQLALAVLDANVDKLLNCKDDGEAMTVLGRYLDSVTNKDSTLPPIPHLHSLLSDDVEPYPEVDIFRLIRTSYEKFGTIRADLIEQMRFKQRLKVIQTLEDTTKRNVVRTIVTETSFTIDELEELYALFKAEHLTSCYWGGSSNALDRHDPSLPYLEQYRIDFEQFKGMFALLFPWACGTHSDVLASRLFQLLDENGDSLINFREFVSGLSAACHGDLTEKLKLLYKMHVLPEPSSDQDEPDSAFEATQYFFEDITPECTHVVGLDSRSKQGADDGFVTVSLKPDKGKRANSQENRNYLRLWTPENKSKSKNAKDLPKLNQGQFIELCKTMYNMFSEDPNEQELYHATAAVTSLLLEIGEVGKLFVAQPAKEGGSGGSGPSCHQGIPGVLFPKKGPGQPYVVESVEPLPASLAPDSEEHSLGGQMEDIKLEDSSPRDNGACSSMLISDDDTKDDSSMSSYSVLSAGSHEEDKLHCEDIGEDTVLVRSGQGTAALPRSTSLDRDWAITFEQFLASLLTEPALVKYFDKPVCMMARITSAKNIRMMGKPLTSASDYEISAMSG [TBC1D9] | -0.4 | 0.38
